Experimental data reported in patent EP2832747A1 (Université Catholique de Louvain, dated 2015).

Molecular target: T1, shGARP-TGFβ (human)
T1 construct: also called immobilized shGARP-TGFβ
Test: BIACOR analysis (SPR), immobilized shGARP-TGFβ

T1 sequence (Q14392 20-627): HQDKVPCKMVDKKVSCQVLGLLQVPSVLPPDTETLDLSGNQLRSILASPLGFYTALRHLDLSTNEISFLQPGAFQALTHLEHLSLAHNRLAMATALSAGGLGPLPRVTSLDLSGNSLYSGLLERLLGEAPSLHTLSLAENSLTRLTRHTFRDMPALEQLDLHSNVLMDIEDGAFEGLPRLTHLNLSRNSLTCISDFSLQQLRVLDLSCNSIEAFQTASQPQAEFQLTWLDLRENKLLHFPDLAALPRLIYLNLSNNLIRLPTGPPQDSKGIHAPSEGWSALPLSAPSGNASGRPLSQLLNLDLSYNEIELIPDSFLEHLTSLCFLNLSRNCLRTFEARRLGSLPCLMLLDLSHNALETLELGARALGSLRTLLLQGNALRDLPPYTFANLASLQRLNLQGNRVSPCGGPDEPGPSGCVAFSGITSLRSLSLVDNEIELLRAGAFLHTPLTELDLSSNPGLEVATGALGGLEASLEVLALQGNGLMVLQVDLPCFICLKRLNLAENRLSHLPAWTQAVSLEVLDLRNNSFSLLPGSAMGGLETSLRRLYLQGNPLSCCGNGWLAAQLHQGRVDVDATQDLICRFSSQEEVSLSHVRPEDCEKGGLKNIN

B1: MHGARP8 (antibody, V domains shown)
VH: QVQLKESGPGLVAPSQSLSITCTVSGFSLTGYGINWVRQPPGKGLEWLGMIWSDGSTDYNSVLTSRLRISKDNSNSQVFLKMNSLQVDDTARYYCARDRNYYDYDGAMDYWGQGTSVTVSS
VL: DIQVTQSSSYLSVSLGDRVTITCKASDHIKNWLAWYQQKPGIAPRLLVSGATSLEAGVPSRFSGSGSGKNFTLSITSLQTEDVATYYCQQYWSTPWTFGGGTTLEIR
notes: Mouse monoclonal from hybridoma MHGARP8 (LMBP 10246CB); used biotinylated in flow cytometry; also called MGARPB; antibody of hybridoma LMBP 10246CB
Work on B1 yielded a Kd of 200 pM.
